Laboratory results reported in paper PMC7088233.
pKd: −log10 of the molar value.

Experiments:
[1] = biological target: recombinant glycosylated HIV-1 IIIB gp120 (baculovirus) (HIV-1 IIIB) (UniProt P04578)
[2] = biological target: recombinant glycosylated HIV-1 IIIB gp120 (baculovirus) (HIV-1 IIIB) (UniProt P04578); experiment: SPR

| Substance | IC50 of neutralization of HIV-1 (derived from pNL4-3) in Jurkat cells [1] | Ka [2] | pKd [2] | koff [2] |
| --- | --- | --- | --- | --- |
| His-tagged recombinant KAA-1 (Kappaphycus alvarezii agglutinin 1) (natural protein) | 12.9 nM | – | – | – |
| native KAA-2 lectin from Kappaphycus alvarezii (natural protein) | 7.3 nM | – | – | – |
| native KAA-1 lectin from Kappaphycus alvarezii (natural protein) | 9.2 nM | – | – | – |
| recombinant KAA-1 after removal of the His tag by thrombin (natural protein) | – | 1.61e+09 M⁻¹ | 9.21 | 0.000529 s⁻¹ |
